Here are results for one protein from patent US20180000925.

The target in the data set is recombinant HCV E2 protein (eEnzyme).

B1: CD45 (Enzo Life Sciences) (protein)
chain: SCNLDEQQELVERDDEKQLMNVEPIHADILLETYKRKIADEGRLFLAEFQSIPRVFSKFPIKEARKPFNQNKNRYVDILPYDYNRVELSEINGDAGSNYINASYIDGFKEPRKYIAAQGPRDETVDDFWRMIWEQKATVIVMVTRCEEGNRNKCAEYWPSMEEGTRAFGDVVVKINQHKRCPDYIIQKLNIVNKKEKATGREVTHIQFTSWPDHGVPEDPHLLLKLRRRVNAFSNFFSGPIVVHCSAGVGRTGTYIGIDAMLEGLEAENKVDVYGYVVKLRRQRCLMVQVEAQYILIHQALVEYNQFGETEVNLSELHPYLHNMKKRDPPSEPSPLEAEFQRLPSYRSWRTQHIGNQEENKSKNRNSNVIPYDYNRVPLKHELEMSKESEHDSDESSDDDSDSEEPSKYINASFIMSYWKPEVMIAAQGPLKETIGDFWQMIFQRKVKVIVMLTELKHGDQEICAQYWGEGKQTYGDIEVDLKDTDKSSTYTLRVFELRHSKRKDSRTVYQYQYTNWSVEQLPAEPKELISMIQVVKQKLPQKNSSEGNKHHKSTPLLIHCRDGSQQTGIFCALLNLLESAETEEVVDIFQVVKALRKARPGMVSTFEQYQFLYDVIASTYPAQNGQVKKNNHQEDKIEFDNEVDKVKQDANCVNPLGAPEKLPEAKEQAEGSEPTSGTEGPEHSVNGPASPALNQGS
As to B1, the “dephosphorylation in an in vitro reaction (phosphotyrosine immunoblot)” value was “dephosphorylated by CD45”.
